According to patent US20210230254A1 (published 2021):
Substitutions are numbered along the chain they refer to.

B1: 8ANC50 (antibody, V domains shown)
VH: QGQLVQSGGGVKKPGTSVTISCLASEYTFTEFTIHWIRQAPGQGPLWLGLIKRSGRLMTAYRFQDRLSLRRDRSTGTVFMELRNLRMDDTAVYYCARDGLGELAPAYQYGIDVWGQGTTVIVSS
VL: EIVLTQSPTTLSLSPGERATLSCRASQGVNLVVWYQQKRGQAPRLLIYGPSDRAPGVPDRFSARGSGTEFSLVISSVEPDDFALYYCQEYSSTPYNFGTGTRVDRKR
notes: also called 8ANC50HC; 8ANC50KC
B2: 8ANC24 (antibody, V domains shown)
VH: QVQLVQSGAEVKMPGASVKVSCKVSGYSLTELSIHWVRQAPGKRLEWMGGFDPEDDERIYAQKFQDRVTMTEDTSTDTAYMDLNSLRSEDTAVYYCTTGGLYCSSISCIMDVWGQGTTVIVSS
VL: EIVMTQSPATLSMSPGERATLSCRASLSVNTNLAWYQQKPGQAPRLLIYGASTRATGIPARFSGSGSGTEFTLTISSLQSEDFALYYCQQYNHWPQTFGQGTKVEIKR
notes: also called 8ANC24HC; 8ANC24KC
B3: 8ANC5 (antibody, V domains shown)
VH: QVQLVQSGAEVRKPGSSLKVSCKSSGGTFSRFVVNWVRQAPGQGLEWMGGMIPIFGIAKYAQKFQDRVTMTADESKNTVYLDFSSLRSDDTAVYYCARDRGDTRLLDYGDYEDERYYYGMDVWGQGTTVIVSS
VL: DIQMTQSPPSLSASVGDRVTITCQASQDINNFLNWYQQKPGKAPRLLIYDASNLESGVSSRFSGSRSGTDFTLTISSLLPEDIATYSCQQYSNLPYTFSQGTKLEIKR
notes: also called 8ANC5HC; 8ANC5KC
B4: 8ANC14 (antibody, V domains shown)
VH: QVQLVQSGAEVKKPGASVKVSCKVSGYTLTELSIHWVRQAPGKGLEWMGGFDSEDGEAFYKQNFQGRVTMTEDTSTDTAYMELRRLRSEDTAVYYCATADRFKVAQDEGLFVIFDYWGQGTLVTVSS
VL: EIVLTQSPATLSLSPGERATLSCRASQSINNYLAWYQQKPGQAPRLLIYDASNRATGIPARFSGGGSGTDFTLTISSLEPEDFAVYYCQQRANWRLLTFGGGTKVEIKR
notes: also called 8ANC14HC; 8ANC14KC
B5: 3B27 (antibody, V domains shown)
VH: EVQLVESGGGLVQPGGSLRISCSATGFTFSTHAMHWVRQAPGKGLEYVSAINSNGRSAFYADSVKGRVTISRDNSKNTLFLQMTSLRAEDTAVYYCVKGPLLRYLDSWGQGTLVTVSS
VL: EIVLTQSPATLSVSPGERATLSCRAGQSVSSDLAWYQHKPGQAPRLLIYDASKRATGIPARFSGSGSGTDFTLTISSLEPEDFAVYYCQHRTNWPPSITFGQGTRLEIKR
notes: also called 3B27HC; 3b27kc
B6: 3B41 (antibody, V domains shown)
VH: EVQLVQSGAEVKKPGASVKVSCKVSGYTLTELSMHWVRQAPGKGLEWMGVFDPLEGDGVYAEKFRGRVIMTEDTSTDTGYMELTSLRSEDTAIYYCATKAKDYYYESSDYSPYYYYYMDVWGKGTTVTVSS
VL: EIVLTQSPGTLSLSPGERATLSCRASQSVSSNYLAWYQQKPGQAPRLLIYGASSRATGIPDRFSGSGSGTDFTLSISRLEPEDFAVYYCQQYGTSSCTFGQGTKLEIKR
notes: also called 3B41HC; 3b41kc
B7: 3BNC55 (antibody, V domains shown)
VH: QVQLVQSGTAVKRPGASVRVSCQASGYTFTDYFIYWWRQAPGQGLEWLGWINPLTSQPSYPSRFQGRLTLTRDTFDEMLYMDLRGLRSDDTGIYFCARRHSDYCDFDIWGSGTQIIVSS
VL: DIQMTQSPSSLSASVGDKVTITCQTSAGYLNWYQQRRGRAPKLLMYDGSRLVTGVPSRFSGRRWGTQYNLTIGSLQPEDIATYYCQVYEFFGPGTRLDLKS
notes: also called 3BNC55HC; 3BNC55KC
B8: 3BNC66 (antibody, V domains shown)
VH: QVQLVQSGAALKKPGASLRISCQTYGYKFTDHLIYWWRQAPGQGLEWIGWIKPETGQPSYSYRFQGRVSLTRDTFEEIAFMDLRGLRSDDTAIYFCARRHTDYCVFDVWGSGSQIIVSS
VL: B7 VL with K18T, S26N, A27K, R50K, F59L, S101R
notes: also called 3BNC66HC; 3bnc66kc
B9: 3BNC156 (antibody, V domains shown)
VH: B8 VH with A79V, T101S, V105D, S111G, I115V
VL: B7 VL with K18T, S26N, A27K, R36K, R50K, F59L, S101R
notes: also called 3BNC156HC; 3bnc156kc
B10: 1B2530 (antibody, V domains shown)
VH: QVRLEQSGAAMRKPGASVTLSCQASGYNFVKYIIHWVRQKPGLGFEWVGMIDPYRGRPWSAHKFQGRLSLSRDTSMEILYMTLTSLKSDDTATYFCARAEAASDSHSRPIMFDHWGQGSRVTVSS
VL: QSALTQPPSASGAPGQRVTISCSGGPSNVGGNYVYWYRQFPGTAPTLLILRDDQRPSGVPDRFSASKSGNSASLAISGLRPDDEGFYFCATYDSDGSIRLFGGGTALTVLS
notes: also called LSSB2530HC; LSSB2530LC
B11: 8ANC134 (antibody, V domains shown)
VH: QGQLVQSGGGVKKPGTSVTISCLASEYTFNEFVIHWIRQAPGQGPVWLGLIKRSGRLMTSYKFQDRLSLRRDRSTGTVFMELRGLRLDDTAVYYCARDGLGEVAPAYLYGIDAWGQGSTVIVTS
VL: B1 VL with T9A, V29L, L31F, R39G, Y48H, S51T, T99P
notes: also called 8ANC134HC; 8ANC134KC
B12: 8ANC131 (antibody, V domains shown)
VH: B11 VH with V11L, V46L, S60A, K62N, S68R, L87P, A106D, L108R, A113V, S124A
VL: B1 VL with T9A, V29L, L31F, Y48H, G49A, D52G, L84I, T99P
notes: also called 8ANC131HC; 8ANC131KC
B13: 3BNC60 (antibody, V domains shown)
VH: QVHLSQSGAAVTKPGASVRVSCEASGYKISDHFIHWWRQAPGQGLQWVGWINPKTGQPNNPRQFQGRVSLTRQASWDFDTYSFYMDLKAVRSDDTAIYFCARQRSDFWDFDVWGSGTQVTVSSASTKG
VL: DIQMTQSPSSLSARVGDTVTITCQANGYLNWYQQRRGKAPKLLIYDGSKLERGVPARFSGRRWGQEYNLTINNLQPEDVATYFCQVYEFIVPGTRLDLKRTVAA
notes: also called 3BNC60HC; 3BNC60KC
B14: 3BNC117 (antibody, V domains shown)
VH: B13 VH with H3Q, S5L, K28N, S30R, H32Y, Q73H, Y81F, V90L, I97V, F107Y
VL: DIQMTQSPSSLSASVGDTVTITCQANGYLNWYQQRRGKAPKLLIYDGSKLERGVPSRFSGRRWGQEYNLTINNLQPEDIATYFCQVYEFVVPGTRLDLKRTVAAPSVFIFPPSD
notes: also called 3BNC117HC; 3bnc117kc
B15: 1NC9 (antibody, V domains shown)
VH: QVRLVQSGAQLKKPGASVTVSCEASGYNFVNYIINWVRQTPGRSFEWVGMIDPRRGRPWSAQKFQGRLTLTRDIDSEKLYMHLSGLRGDDTAVYYCARQDSDFHDGHGHTLRGMFDSWGQGSPVTVSS
VL: QVLSVSGTPGQRVIISCSGTSSNVGGNLVSWYQHLPGAAPRLLIHRDDQRPSGVPDRFSGSKSGNSASLVISGLRSDDEADYFCAAYDSTFSLPVFGGGTRLTVLS
notes: also called LSSNEC9HC; LSSNEC9LC
B16: 8ANC195 (antibody, V domains shown)
VH: QIHLVQSGTEVKKPGSSVTVSCKAYGVNTFGLYAVNWVRQAPGQSLEYIGQIWRWKSSASHHFRGRVLISAVDLTGSSPPISSLEIKNLTSDDTAVYFCTTTSTYDKWSGLHHDGVMAFSSWGQGTLISVSA
VL: DIQMTQSPSTLAASIGGTVRVSCRASQSITGNWVAWYQQRPGKAPRLLIYRGAALLGGVPSRFSGSAAGTDFTLTIGNLQAEDFGTFYCQQYDTYPGTFGQGTKVEVKR
notes: also called 8ANC195HC; 8ANC195KC
B17: 12A21 (antibody, V domains shown)
VH: SQHLVQSGTQVKKPGASVRVSCQASGYTFTNYILHWWRQAPGQGLEWMGLIKPVFGAVNYARQFQGRIQLTRDIYREIAFLDLSGLRSDDTAVYYCARDESGDDLKWHLHPWGQGTQVIVSP
VL: DIQMTQSPSSLSASVGDRVTINCQAGQGIGSSLNWYQKKPGRAPKLLVHGASNLQRGVPSRFSGSGFHTTFTLTISSLQPDDVATYFCAVFQWFGPGTKVDIKR
notes: also called 12A21HC; 12a21kc
B18: NIH45-46 (antibody, V domains shown)
VH: QVRLSQSGGQMKKPGESMRLSCRASGYEFLNCPINWIRLAPGRRPEWMGWLKPRGGAVNYARKFQGRVTMTRDVYSDTAFLELRSLTSDDTAVYFCTRGKYCTARDYYNWDFEH
VL: EIVLTQSPATLSLSPGETAIISCRTSQSGSLAWYQQRPGQAPRLVIYSGSTRAAGIPDRFSGSRWGADYNLSISNLESGDFGVYYCQQYEFFG
B19: 12A12 (antibody, V domains shown)
VH: SQQLVQSGTQVKKPGASVRISCQASGYSFTDYVLHWWRQAPGQGLEWMGWIKPVYGARNYARRFQGRINFDRDIYREIAFMDLSGLRSDDTALYFCARDGSGDDTSWHLDPWGQGTLVIVSA
VL: DIQMTQSPSSLSASVGDRVTITCQAGQGIGSSLQWYQQKPGKAPKLLVHGASNLHRGVPSRFSGSGFHTTFSLTISGLQRDDFATYFCAVLEFFGPGTKVEIKR
notes: also called 12A12HC; 12a12kc

Molecular target: T1, YU2 gp120 (HIV-1 YU2, UniProt P35961 32-498)
T1 construct: domain: gp120
Test: ELISA, column Binding
Method: (§1) ELISAs. […] After washing, plates were blocked 2 h with 2% BSA, 1 μM EDTA, 0.05% Tween-PBS (Blocking buffer) and then, incubated 2h with IgG antibodies diluted at 4 μg/ml and several consecutive 1:4 dilutions in PBS. After washing, the plates were developed by incubation for 1 h with goat HRP-conjugated anti-mouse IgG (Jackson ImmunoReseach) (at 0.8 μg/ml in blocking buffer) and by adding 100 μl of HRP chromogenic substrate (ABTS solution, Invitrogen). […] Background values given by incubation of PBS alone in coated wells were subtracted. […] Threshold values for reactivity were determined by using control antibodies mGO53 (negative), eiJB40 (low positive), and ED38 (high positive).

Binder | binding result
B1 | binds
B2 | binds
B3 | binds
B4 | binds

Molecular target: T1, YU2 gp120
Test: ELISA, column Binding
Remark: another data set of the same source
Method: as §1

Binder | binding result
B5 | binds
B6 | binds

Molecular target: T2, YU-2 gp140 (HIV-1 YU2, UniProt P35961 32-670)
T2 construct: domain: gp140; also called YU2 gp140 trimer
Test: SPR, gp140 on chip, IgG injected

Binder | Kd [nM] | koff [s⁻¹] | kon [M⁻¹ s⁻¹]
B7 | 57.8 | 0.000755 | 13100
B8 | 88.1 | 0.00141 | 16000
B9 | 175 | 0.00198 | 11300
B10 | 34.2 | 0.00162 | 47400
B11 | 113 | 0.00174 | 15500
B12 | 16.5 | 0.00109 | 65900
B13 | 6.81 | 0.000186 | 27300
B14 | 6.54 | 0.000199 | 30400
B15 | 12 | 0.000581 | 48300
B16 | 34.3 | 0.00167 | 48800
B17 |  | 3.44e-07 | 91800
B18 | 6.75 | 0.000287 | 42600
B19 | 0.315 | 1.44e-05 | 45900

Molecular target: T2, YU-2 gp140
Test: SPR, gp140 on chip, IgG injected; minus sign of the exponent missing in print (kd/ka gives 3.75e-12)

Binder | Kd [pM]
B17 | 3.75
